According to PMC5698441 (Nature Communications, 2017):

Target: T1, biotinylated CaM (UniProt P0DP23 1-149, biotin (EZ link NHS Biotin, two-fold molar excess))
T1 construct: calmodulin, biotin-labelled; also called biotin-CaM; biotin-labeled CaM; source: purified CaM labelled with EZ link NHS Biotin, separated from free biotin by SEC
Test: AlphaScreen or HTRF; competition: WT or mutant 20-mer peptides AKAP79 77-96 added to biotin-CaM (10 nM) and GST-AKAP79 (1-153); emission relative to untreated; peptide concentration not given
Details: both partners purified

alphascreen emission relative to untreated samples: 0.17 ± 0.04 relative to untreated
B1: 20-mer AKAP79 (77–96) V86A (peptide)
peptide: GAWASLKRLATRRKRSESSK
notes: AKAP79 residues 77-96 with V86A; also called V86A peptide; source: synthetic peptide (Sigma PEPscreen)
